From patent US8785135B2, “Mutant G-protein coupled receptors and methods for selecting them” (Heptares Therapeutics Limited, priority 2007, dated 2014)
Substitutions are numbered along the chain they refer to. Names and notes keep the numbering of the source. Read-outs that look alike come from different tables or passages of the source. One block for each molecule: values may come before it.

Columns and labels:
βAR-m23 = βAR-m23 (Meleagris gallopavo, UniProt P07700, A282L/C116L/F327A/F338M/M90V/R68S/Y227A); type: binding, turkey
Sequence of βAR-m23 (P07700 34-424 R68S/M90V/C116L/Y227A/A282L/F327A/F338M): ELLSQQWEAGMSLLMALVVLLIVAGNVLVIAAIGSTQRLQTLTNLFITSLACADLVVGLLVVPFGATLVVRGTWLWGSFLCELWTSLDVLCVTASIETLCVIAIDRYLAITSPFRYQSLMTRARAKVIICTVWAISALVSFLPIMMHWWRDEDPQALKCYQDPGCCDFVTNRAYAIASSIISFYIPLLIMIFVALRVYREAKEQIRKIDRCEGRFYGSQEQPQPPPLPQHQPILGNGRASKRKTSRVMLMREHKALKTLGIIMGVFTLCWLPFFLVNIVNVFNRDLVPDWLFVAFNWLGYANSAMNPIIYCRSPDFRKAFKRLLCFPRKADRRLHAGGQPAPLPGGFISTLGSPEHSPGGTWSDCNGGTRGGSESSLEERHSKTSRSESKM

[1] = Thermostability assay of βAR34-424 and mutants (heat detergent-solubilised receptor 30 min, then [3H]-DHA binding); conditions: heated 30 min without ligand; for Tm: turkey βAR expressed in E. coli, DDM-solubilised, [3H]-DHA binding, mean ± S.E. from duplicates
[2] = Thermostability of A2aR and mutants (ligand binding after or during heating); type: physicochemical; conditions: for Tm +agonist / Tm +antagonist / Tm −agonist / Tm −antagonist: 1% DDM (no glycerol); for Tm +agonist: agonist-occupied state; for Tm +antagonist: antagonist-occupied state; for Tm −agonist / Tm −antagonist: apo-state; for Tm −agonist: agonist binding; for Tm −antagonist: antagonist binding; for Tm: ZM241385 bound
Procedure, shortened: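 Thermostability of wild-type and site-directed mutant A2aR assessed by agonist or antagonist binding either after heating (ligand(−) format) or during heating with ligand present (ligand(+) format); stability expressed as Tm.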

[3] = Stability of wild-type and mutant A2aR in different detergents; type: physicochemical; design: key: It was not possible to determine the Tm for some receptor-detergent combinations, because the receptor was too unstable (†)
[4] = Thermostability of β adrenergic receptors expressed in mammalian cells, minus-ligand format; conditions: 0.1% dodecylmaltoside, apo-state heated, 3H-DHA added after
Rant 21 = Rant 21 (Homo sapiens, UniProt P29274, A54L/K122A/T88A/V239A); experiment: Competition assay against [3H]ZM241385, detergent-solubilised receptor; type: binding; conditions: versus wild-type A2aR
[5] = Ligand(−) format, binding after the heating step

Molecule: 1-[4,6-propyl-^3H]-dihydroalprenolol [[^3H]-dihydroalprenolol]
Kd (βAR-m23; membranes, n=2): 6.5 ± 0.2 nM | Kd (βAR-m23; semipurified receptor): 12.5 nM

Molecule: M90A: βAR34-424 point mutant
increase in Tm compared to βAR34-424 ([1]; DDM): 8 °C

Molecule: Wildtype A2aR: human adenosine A2a receptor, parent
Tm +agonist [2]: 29 °C | Tm +antagonist [2]: 32 °C | Tm −agonist [2]: 21 °C | Tm −antagonist [2]: 31 °C | Tm [2]: 31 °C | Tm Agonist-binding ([3]; 0.003% LDAO): 28 °C | Tm Antagonist-binding ([3]; 0.003% LDAO): 32 °C | Tm Agonist-binding ([3]; 0.006% FC12): 37 °C | Tm Antagonist-binding ([3]; 0.006% FC12): 43 °C | Tm Agonist-binding ([3]; 0.01% DDM): 27 °C | Tm Antagonist-binding ([3]; 0.01% DDM): 25 °C | Tm Agonist-binding ([3]; 0.1% DM): 23 °C | Tm Antagonist-binding ([3]; 0.1% DM): 10 °C | Tm Agonist-binding ([3]; 0.3% NG): † | Tm Antagonist-binding ([3]; 0.3% NG): † | Tm Agonist-binding ([3]; 0.3% NM): 22 °C | Tm Antagonist-binding ([3]; 0.3% NM): <4 °C | Tm Agonist-binding ([3]; 0.6% OG): <9 °C | Tm Antagonist-binding ([3]; 0.6% OG): †

Molecule: human β1: human β1 adrenergic receptor
apparent Tm [4]: ~12 °C

Molecule: m6-4: βAR34-424 mutant R68S, Y227A, A234L, A282L
Tm [1]: 41.6 ± 0.1 °C

Molecule: m6-5: βAR34-424 mutant R68S, A234L, A282L, A334L
Tm [1]: 41.9 ± 0.5 °C

Molecule: m6-9: βAR34-424 mutant R68S, Y227A, A234L, A282L, A334L
Tm [1]: 43.7 ± 0.4 °C

Molecule: m6-10: βAR34-424 mutant R68S, Y227A, A282L, A334L
Tm [1]: 47.4 ± 1.1 °C

Molecule: m7-1: βAR34-424 mutant M90V, A282L, F338M
Tm [1]: 43.0 ± 0.8 °C

Molecule: m7-7: βAR34-424 mutant M90V, Y227A, F338M
Tm [1]: 45.2 ± 2.0 °C

Molecule: m10-4: βAR34-424 mutant R68S, M90V, V230A, A334L
Tm [1]: 46.9 ± 1.0 °C

Molecule: m20: βAR34-424 mutant R68S, M90V, F327A, A334L
Tm [1]: 48.4 ± 0.7 °C

Molecule: turkey β1: turkey β1 adrenergic receptor transiently expressed in mammalian cells
apparent Tm [4]: 23 °C

agonist binding weaker than parent (Rant 21): 2-4 orders of magnitude
B1: Rant 21: A2aR mutant A54L, T88A, V239A+K122A (protein, UniProt P29274 1-412, looked up, variant A54L T88A V239A K122A)
Adenosine receptor A2a: MPIMGSSVYITVELAIAVLAILGNVLVCWAVWLNSNLQNVTNYFVVSLAAADILVGVLAIPFAITISTGFCAACHGCLFIACFVLVLAQSSIFSLLAIAIDRYIAIRIPLRYNGLVTGTRAAGIIAICWVLSFAIGLTPMLGWNNCGQPKEGKNHSQGCGEGQVACLFEDVVPMNYMVYFNFFACVLVPLLLMLGVYLRIFLAARRQLKQMESQPLPGERARSTLQKEVHAAKSLAIIAGLFALCWLPLHIINCFTFFCPDCSHAPLWLMYLAIVLSHTNSVVNPFIYAYRIREFRQTFRKIIRSHVLRQQEPFKAAGTSARVLAAHGSDGEQVSLRLNGHPPGVWANGSAPHPERRPNGYALGLVSGGSAQESQGNTGLPDVELLSHELKGVCPEPPGLDDPLAQDGAGVS
Tm +antagonist [2]: 49 °C | Tm −antagonist [2]: 41 °C | Tm [2]: 49 °C | Tm Antagonist-binding ([3]; 0.003% LDAO): 42 °C | Tm Antagonist-binding ([3]; 0.006% FC12): 49 °C | Tm Antagonist-binding ([3]; 0.01% DDM): 39 °C | Tm Antagonist-binding ([3]; 0.1% DM): 28 °C | Tm Antagonist-binding ([3]; 0.3% NG): 22 °C | Tm Antagonist-binding ([3]; 0.3% NM): 25 °C | Tm Antagonist-binding ([3]; 0.6% OG): 23 °C

B2: Rag 1: A2aR mutant A184L/R199A/L272A (protein, UniProt P29274 1-412, looked up, variant A184L R199A L272A)
Adenosine receptor A2a: B1 Adenosine receptor A2a with L54A, A88T, A122K, A184L, R199A, A239V, L272A
Tm +agonist [2]: 34 °C | Tm −agonist [2]: 26 °C

B3: G118A: A2aR point mutant (protein, UniProt P29274 1-412, looked up, variant G118A)
Adenosine receptor A2a: B1 Adenosine receptor A2a with L54A, A88T, G118A, A122K, A239V
thermostability assayed with 3H-ZM241385 (antagonist) [2, 5]: improved thermostability | thermostability measured with 3H-NECA (agonist) [2, 5]: improved thermostability

B4: A184L: A2aR point mutant (protein, UniProt P29274 1-412, looked up, variant A184L)
Adenosine receptor A2a: B1 Adenosine receptor A2a with L54A, A88T, A122K, A184L, A239V
thermostability measured with 3H-NECA (agonist) [2, 5]: improved thermostability

B5: R199A: A2aR point mutant (protein, UniProt P29274 1-412, looked up, variant R199A)
Adenosine receptor A2a: B1 Adenosine receptor A2a with L54A, A88T, A122K, R199A, A239V
thermostability measured with 3H-NECA (agonist) [2, 5]: improved thermostability

B6: L167A: A2aR point mutant (protein, UniProt P29274 1-412, looked up, variant L167A)
Adenosine receptor A2a: B1 Adenosine receptor A2a with L54A, A88T, A122K, L167A, A239V
thermostability measured with 3H-NECA (agonist) [2, 5]: improved thermostability

B7: Rant 5: A2aR mutant A54L/T88A/V239A (protein, UniProt P29274 1-412, looked up, variant A54L T88A V239A)
Adenosine receptor A2a: B1 Adenosine receptor A2a with A122K
Tm +antagonist [2]: 46 °C | Tm −antagonist [2]: 42 °C
